Among the data in the supplement of paper PMC10567573 are protein stability index values, retold here.

Sequences and labels used below:
B1: USP39 (parent)
chain: FQGSMRIFTKKLPHPDLPAEEKEQ
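Also: lentivirally expressed fusions sorted by FACS into six bins by GFP to DsRed ratio, PSI derived from sequencing read proportions per bin multiplied by bin number.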

The variants in this series derive from B1. Briefly: protein stability index of a GFP-peptide fusion (GPS, HEK-293T) (PSI 1-6); higher = more stable. The following applies: c terminus: a fixed tail appended.
Take FQGSMRIFTKKLGHPDLPAEEKEQ: the protein stability index came to 2.1.

Regarding FQGSMRIFTKKLIHPDLPAEEKEQ, the protein stability index came to 1.86.

In the case of FQGSMRIFTKKLYHPDLPAEEKEQ, the protein stability index amounted to 1.62.

Consider FQGSMRIFTKKLRHPDLPAEEKEQ, for which the protein stability index is 2.17.

As to FQGSMRIFTKKLNHPDLPAEEKEQ, the protein stability index was 2.35.

FQGSMRIFTKKLLHPDLPAEEKEQ: the protein stability index was 1.65.

For FQGSMRIFTKKLVHPDLPAEEKEQ, the protein stability index was 1.75.

With FQGSMRIFTKKLTHPDLPAEEKEQ, the protein stability index stood at 1.68.

As to FQGSMRIFTKKLQHPDLPAEEKEQ, the protein stability index came to 1.9.

Turning to FQGSMRIFTKKLWHPDLPAEEKEQ, the protein stability index came to 3.08.

For FQGSMRIFTKKLHHPDLPAEEKEQ, the protein stability index is 2.4.

For FQGSMRIFTKKLSHPDLPAEEKEQ, the protein stability index turned out to be 1.61.

Take FQGSMRIFTKKLMHPDLPAEEKEQ: the protein stability index was found to be 2.12.

FQGSMRIFTKKLKHPDLPAEEKEQ: the protein stability index came to 2.15.

Regarding FQGSMRIFTKKLPHPDLCAEEKEQ, the protein stability index was 1.83.

FQGSMRIFTKKLPHPDLAAEEKEQ: the protein stability index stood at 2.07.

As for FQGSMRIFTKKLPHPDLDAEEKEQ, the protein stability index was 1.93.

Consider FQGSMRIFTKKLPHPDLEAEEKEQ, for which the protein stability index was determined as 1.8.

On to FQGSMRIFTKKLPYPDLPAEEKEQ, for which the protein stability index came to 1.8.

Take FQGSMRIFTKKLPPPDLPAEEKEQ: the protein stability index came to 1.86.

Regarding FQGSMRIFTKKLPQPDLPAEEKEQ, the protein stability index is 1.78.

For FQGSMRIFTKKLPKPDLPAEEKEQ, the protein stability index is 1.77.

FQGSMRIFTKKLPEPDLPAEEKEQ: the protein stability index was 2.05.

For the variant FQGSMRIFTKKLPIPDLPAEEKEQ, the protein stability index is 1.84.

Take FQGSMRIFTKKLPRPDLPAEEKEQ: the protein stability index worked out at 1.93.

Take FQGSMRIFTKKLPNPDLPAEEKEQ: the protein stability index was determined as 1.94.

With FQGSMRIFTKKLPFPDLPAEEKEQ, the protein stability index stood at 1.92.

FQGSMRIFTKKLPGPDLPAEEKEQ: the protein stability index came to 1.77.

With FQGSMRIFTKKLPWPDLPAEEKEQ, the protein stability index is 1.99.

For the variant FQGSMRIFTKKLPLPDLPAEEKEQ, the protein stability index worked out at 2.36.

For the variant FQGSMRIFTKKLPDPDLPAEEKEQ, the protein stability index was 2.18.

As to FQGSMRIFTKKLPCPDLPAEEKEQ, the protein stability index came to 2.27.

As for FQGSMRIFTKKLPMPDLPAEEKEQ, the protein stability index turned out to be 2.36.

On to FQGSMRIFTKKLPAPDLPAEEKEQ, for which the protein stability index was determined as 1.9.

In the case of FQGSMRIFTKKLPVPDLPAEEKEQ, the protein stability index came to 1.88.

Consider FQGSMRIFTKKLPTPDLPAEEKEQ, for which the protein stability index stood at 2.36.

In the case of FQGSMRIFTKKLPSPDLPAEEKEQ, the protein stability index was determined as 1.65.

With FQGSMRIFTKKLPHPDRPAEEKEQ, the protein stability index is 1.9.

Consider FQGSMRIFTKKLPHPDDPAEEKEQ, for which the protein stability index turned out to be 2.32.

Regarding FQGSMRIFTKKLPHPDWPAEEKEQ, the protein stability index came to 2.06.

With FQGSMRIFTKKLPHPDIPAEEKEQ, the protein stability index was determined as 1.89.

As to FQGSMRIFTKKLPHPDHPAEEKEQ, the protein stability index is 1.92.

For the variant FQGSMRIFTKKLPHPDNPAEEKEQ, the protein stability index was 2.26.

Regarding FQGSMRIFTKKLPHPDEPAEEKEQ, the protein stability index worked out at 2.24.

As to FQGSMRIFTKKLPHPDSPAEEKEQ, the protein stability index was 1.95.

For FQGSMRIFTKKLPHPDMPAEEKEQ, the protein stability index amounted to 1.95.

For the variant FQGSMRIFTKKLPHPDVPAEEKEQ, the protein stability index was determined as 1.88.

In the case of FQGSMRIFTKKLPHPDGPAEEKEQ, the protein stability index stood at 2.19.

Regarding FQGSMRIFTKKLPHPDFPAEEKEQ, the protein stability index was 2.36.

As for FQGSMRIFTKKLPHPDPPAEEKEQ, the protein stability index amounted to 1.96.

In the case of FQGSMRIFTKKLPHPDKPAEEKEQ, the protein stability index is 1.66.

As for FQGSMRIFTKKLPHPDYPAEEKEQ, the protein stability index came to 2.5.

As for FQGSMRIFTKKLPHPDQPAEEKEQ, the protein stability index is 2.34.

As for FQGSMRIFTKKLPHPDCPAEEKEQ, the protein stability index amounted to 2.33.

Take FQGSMRIFTKKLPHPDAPAEEKEQ: the protein stability index was found to be 1.99.

Take FQGSMRIFTKKLPHPDTPAEEKEQ: the protein stability index is 2.1.

Regarding FQGSMRIFTKKLPHPVLPAEEKEQ, the protein stability index turned out to be 1.99.

On to FQGSMRIFTKKLPHPKLPAEEKEQ, for which the protein stability index amounted to 1.94.

Consider FQGSMRIFTKKLPHPQLPAEEKEQ, for which the protein stability index came to 2.19.

For the variant FQGSMRIFTKKLPHPPLPAEEKEQ, the protein stability index was determined as 1.73.

For the variant FQGSMRIFTKKLPHPSLPAEEKEQ, the protein stability index came out at 1.85.

For FQGSMRIFTKKLPHPWLPAEEKEQ, the protein stability index stood at 2.67.

On to FQGSMRIFTKKLPHPALPAEEKEQ, for which the protein stability index was 1.7.

Consider FQGSMRIFTKKLPHPYLPAEEKEQ, for which the protein stability index came out at 2.18.

For the variant FQGSMRIFTKKLPHPHLPAEEKEQ, the protein stability index came to 2.12.

As to FQGSMRIFTKKLPHPMLPAEEKEQ, the protein stability index is 1.76.

Turning to FQGSMRIFTKKLPHPLLPAEEKEQ, the protein stability index was 2.3.

On to FQGSMRIFTKKLPHPRLPAEEKEQ, for which the protein stability index is 2.17.

Turning to FQGSMRIFTKKLPHPILPAEEKEQ, the protein stability index was found to be 2.13.

Regarding FQGSMRIFTKKLPHPELPAEEKEQ, the protein stability index worked out at 2.18.

As for FQGSMRIFTKKLPHPNLPAEEKEQ, the protein stability index was found to be 2.37.

With FQGSMRIFTKKLPHPCLPAEEKEQ, the protein stability index was determined as 1.54.

In the case of FQGSMRIFTKKLPHPGLPAEEKEQ, the protein stability index came out at 1.97.

On to FQGSMRIFTKKLPHPTLPAEEKEQ, for which the protein stability index was found to be 2.64.

For FQGSMRIFTKKLPHPFLPAEEKEQ, the protein stability index was determined as 2.16.

Consider FQGSMRIFTKKLPHKDLPAEEKEQ, for which the protein stability index is 1.76.

As to FQGSMRIFTKKLPHCDLPAEEKEQ, the protein stability index stood at 1.64.

FQGSMRIFTKKLPHLDLPAEEKEQ: the protein stability index is 1.85.

FQGSMRIFTKKLPHTDLPAEEKEQ: the protein stability index stood at 1.93.

For the variant FQGSMRIFTKKLPHGDLPAEEKEQ, the protein stability index was 1.92.

For FQGSMRIFTKKLPHSDLPAEEKEQ, the protein stability index is 1.94.

As to FQGSMRIFTKKLPHVDLPAEEKEQ, the protein stability index was determined as 1.62.

For the variant FQGSMRIFTKKLPHWDLPAEEKEQ, the protein stability index turned out to be 1.48.

Regarding FQGSMRIFTKKLPHFDLPAEEKEQ, the protein stability index was determined as 2.14.

Turning to FQGSMRIFTKKLPHIDLPAEEKEQ, the protein stability index was found to be 1.75.

For the variant FQGSMRIFTKKLPHADLPAEEKEQ, the protein stability index was determined as 1.92.

On to FQGSMRIFTKKLPHRDLPAEEKEQ, for which the protein stability index is 2.03.

FQGSMRIFTKKLPHMDLPAEEKEQ: the protein stability index came to 2.1.

As to FQGSMRIFTKKLPHNDLPAEEKEQ, the protein stability index is 2.41.

With FQGSMRIFTKKLPHEDLPAEEKEQ, the protein stability index was determined as 2.19.

As for FQGSMRIFTKKLPHDDLPAEEKEQ, the protein stability index stood at 1.73.

As to FQGSMRIFTKKLPHYDLPAEEKEQ, the protein stability index was determined as 1.34.

For the variant FQGSMRIFTKKLPHQDLPAEEKEQ, the protein stability index was determined as 1.74.

Consider FQGSMRIFTKKLPHHDLPAEEKEQ, for which the protein stability index worked out at 2.15.
